The target in assay [1] is T1, ITGA2 protein on the surface of human tumor cells (human, UniProt P17301 30-1181).
T1 construct: whole, on cells; Endogenously expressed; the cell line is named under assay or readout; also called Integrin alpha-2; ITGA2-positive HuCCT1 cells
T1 sequence (looked up): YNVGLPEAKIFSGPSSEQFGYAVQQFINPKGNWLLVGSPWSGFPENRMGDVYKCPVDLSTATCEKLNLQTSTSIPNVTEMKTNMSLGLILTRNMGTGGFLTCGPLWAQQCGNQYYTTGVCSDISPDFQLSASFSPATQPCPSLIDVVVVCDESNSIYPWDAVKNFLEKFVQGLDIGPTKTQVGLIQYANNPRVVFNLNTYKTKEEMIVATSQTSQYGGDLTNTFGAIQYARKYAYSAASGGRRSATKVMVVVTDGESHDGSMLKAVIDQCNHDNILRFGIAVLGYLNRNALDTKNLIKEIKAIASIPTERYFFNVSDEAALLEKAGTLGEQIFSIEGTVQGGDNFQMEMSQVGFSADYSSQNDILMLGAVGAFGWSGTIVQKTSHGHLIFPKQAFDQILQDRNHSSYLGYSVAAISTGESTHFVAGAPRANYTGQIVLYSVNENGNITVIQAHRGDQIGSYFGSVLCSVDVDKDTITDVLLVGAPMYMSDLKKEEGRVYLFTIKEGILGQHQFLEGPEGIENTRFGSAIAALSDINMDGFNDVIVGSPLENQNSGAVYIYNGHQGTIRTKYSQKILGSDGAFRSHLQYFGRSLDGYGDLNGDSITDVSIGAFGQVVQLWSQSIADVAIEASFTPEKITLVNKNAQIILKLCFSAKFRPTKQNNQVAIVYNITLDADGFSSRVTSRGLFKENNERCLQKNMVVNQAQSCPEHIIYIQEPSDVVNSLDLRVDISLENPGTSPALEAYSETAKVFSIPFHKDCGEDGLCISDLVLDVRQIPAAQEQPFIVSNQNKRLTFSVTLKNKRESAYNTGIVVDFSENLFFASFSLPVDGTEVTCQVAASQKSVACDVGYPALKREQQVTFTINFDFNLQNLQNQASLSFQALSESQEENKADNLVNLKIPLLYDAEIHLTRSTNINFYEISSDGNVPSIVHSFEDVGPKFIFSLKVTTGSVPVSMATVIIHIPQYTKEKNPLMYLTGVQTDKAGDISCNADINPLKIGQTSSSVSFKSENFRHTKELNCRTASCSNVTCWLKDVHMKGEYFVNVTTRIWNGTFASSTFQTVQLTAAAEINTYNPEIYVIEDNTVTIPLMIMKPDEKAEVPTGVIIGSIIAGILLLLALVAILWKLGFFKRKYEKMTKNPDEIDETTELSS
The assay can be described thus: flow cytometry on HuCCT1 cells.

The target in the next assay is T2, ITGA2-His (UniProt P17301 30-1132, limits assumed).
T2 construct: Coated on the ELISA plate at 2 ug/mL; whole entry P17301 is named; also called ITGA2 protein; not shown: His tag
T2 sequence (looked up): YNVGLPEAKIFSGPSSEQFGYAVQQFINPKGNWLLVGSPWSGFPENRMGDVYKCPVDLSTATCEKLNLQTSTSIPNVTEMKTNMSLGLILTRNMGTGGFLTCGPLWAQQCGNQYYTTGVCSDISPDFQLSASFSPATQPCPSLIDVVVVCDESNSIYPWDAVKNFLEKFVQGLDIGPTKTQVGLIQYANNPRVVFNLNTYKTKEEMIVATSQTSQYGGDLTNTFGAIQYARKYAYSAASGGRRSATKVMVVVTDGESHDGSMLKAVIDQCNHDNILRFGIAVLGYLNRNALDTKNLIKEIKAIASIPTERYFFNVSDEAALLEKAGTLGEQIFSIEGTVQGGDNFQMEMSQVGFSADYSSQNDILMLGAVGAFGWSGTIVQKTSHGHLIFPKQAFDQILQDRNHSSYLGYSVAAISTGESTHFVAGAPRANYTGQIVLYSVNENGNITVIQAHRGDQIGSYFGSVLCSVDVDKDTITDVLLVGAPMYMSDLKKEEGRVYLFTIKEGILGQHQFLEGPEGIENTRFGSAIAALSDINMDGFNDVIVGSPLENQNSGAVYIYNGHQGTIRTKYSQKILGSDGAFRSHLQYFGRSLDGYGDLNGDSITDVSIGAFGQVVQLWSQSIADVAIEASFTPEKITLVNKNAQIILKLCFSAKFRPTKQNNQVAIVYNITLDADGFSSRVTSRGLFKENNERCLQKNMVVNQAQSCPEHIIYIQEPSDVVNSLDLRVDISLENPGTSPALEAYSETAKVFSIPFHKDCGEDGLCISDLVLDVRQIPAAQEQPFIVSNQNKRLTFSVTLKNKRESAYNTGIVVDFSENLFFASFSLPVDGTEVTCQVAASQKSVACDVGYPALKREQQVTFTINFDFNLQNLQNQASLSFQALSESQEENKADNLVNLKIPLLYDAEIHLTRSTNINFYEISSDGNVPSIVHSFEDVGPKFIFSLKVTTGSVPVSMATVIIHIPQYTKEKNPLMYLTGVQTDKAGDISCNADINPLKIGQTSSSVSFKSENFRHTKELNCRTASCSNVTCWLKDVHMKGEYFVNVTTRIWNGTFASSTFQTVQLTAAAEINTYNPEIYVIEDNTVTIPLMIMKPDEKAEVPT
Put plainly: ELISA, plate coated with 2 ug/mL ITGA2-His, anti-human IgG-Fc-HRP detection. In general terms: ELISA stands for enzyme-linked immunosorbent assay.

B1: Humanized antibody FS002-A153-H5L2 (antibody, human IgG1, kappa, V domains shown)
VH: QVQLVQSGAEVKKPGASVKVSCKASGYTFTDYEMHWVRQAPGQGLEWMGTIDPETGGTTYAQKFQGRVTMTADTSISTAYMELSRLRSDDTAVYYCARSGYYVSSYESYAMDYWGQGTTVTVSS
VL: DIVMTQSPDSLAVSLGERVTMNCKSSQSLLNSGNQKNYLTWYQQKPGQPPKLLIYGASTRESGVPDRFSGSGSGTDFTLTISSLQAEDVAVYYCQNDYSYPFTFGGGTKLEIKR
notes: Humanized IgG1 kappa
Take B1: the EC50 (as a rule, the concentration giving half of the maximal effect) in assay [1] came out at 0.22 nM; with ITGA2-His, 0.009 nM.

B2: Humanized antibody FS002-A153-H5L5 (antibody, human IgG1, kappa, V domains shown)
VH: QVQLVQSGAEVKKPGASVKVSCKASGYTFTDYEMHWVRQAPGQGLEWMGTIDPETGGTTYAQKFQGRVTMTADTSISTAYMELSRLRSDDTAVYYCARSGYYVSSYESYAMDYWGQGTTVTVSS
VL: EIVMTQSPPTLSLSPGERVTMSCRSSQSLLNSGNQKNYLTWYQQKPGQAPRLLIYGASTRESGVPARFSGSGSGTDFTLTISSLQPEDFAVYYCQNDYSYPFTFGGGTKLEIKR
notes: Humanized IgG1 kappa
With B2, the EC50 in assay [1] worked out at 0.48 nM; with ITGA2-His, 0.022 nM.

B3: Humanized antibody FS002-A153-H3L3 (antibody, human IgG1, kappa, V domains shown)
VH: QVQLVQSGAEVKKPGASVKLSCKASGYTFTDYEMHWVRQAPGQGLEWIGTIDPETGGTTYNQKFQGRVTLTADTSISTAYMELSRLRSDDTAVYYCSRSGYYVSSYESYAMDYWGQGTTVTVSS
VL: DIVMTQSPDSLAVSLGERATINCKSSQSLLNSGNQKNYLTWYQQKPGQPPKLLIYGASTRESGVPDRFSGSGSGTDFTLTISSLQAEDVAVYYCQNDYSYPFTFGGGTKLEIKR
notes: Humanized IgG1 kappa
As to B3, the EC50 in assay [1] was 0.42 nM; in the assay with ITGA2-His, 0.014 nM.

B4: Humanized antibody FS002-A153-H5L4 (antibody, human IgG1, kappa, V domains shown)
VH: QVQLVQSGAEVKKPGASVKVSCKASGYTFTDYEMHWVRQAPGQGLEWMGTIDPETGGTTYAQKFQGRVTMTADTSISTAYMELSRLRSDDTAVYYCARSGYYVSSYESYAMDYWGQGTTVTVSS
VL: DIVMTQSPPTLSVSPGERVTMSCKSSQSLLNSGNQKNYLTWYQQKPGQAPRLLIYGASTRESGVPDRFSGSGSGTDFTLTISSLQPEDFAVYYCQNDYSYPFTFGGGTKLEIKR
notes: Humanized IgG1 kappa
Take B4: the EC50 in assay [1] came out at 0.487 nM; with ITGA2-His, 0.024 nM.

B5: Humanized antibody FS002-A153-H4L2 (antibody, human IgG1, kappa, V domains shown)
VH: QVQLVQSGAEVKKPGASVKVSCKASGYTFTDYEMHWVRQAPGQGLEWMGTIDPETGGTTYAQKFQGRVTLTADTSISTAYMELSRLRSDDTAVYYCSRSGYYVSSYESYAMDYWGQGTTVTVSS
VL: DIVMTQSPDSLAVSLGERVTMNCKSSQSLLNSGNQKNYLTWYQQKPGQPPKLLIYGASTRESGVPDRFSGSGSGTDFTLTISSLQAEDVAVYYCQNDYSYPFTFGGGTKLEIKR
notes: Humanized IgG1 kappa
With B5, the EC50 was found to be 0.313 nM in assay [1] and 0.011 nM with ITGA2-His.

B6: Humanized antibody FS002-A153-H5L1 (antibody, human IgG1, kappa, V domains shown)
VH: QVQLVQSGAEVKKPGASVKVSCKASGYTFTDYEMHWVRQAPGQGLEWMGTIDPETGGTTYAQKFQGRVTMTADTSISTAYMELSRLRSDDTAVYYCARSGYYVSSYESYAMDYWGQGTTVTVSS
VL: DIVMTQSPDSLAVSLGERVTMSCKSSQSLLNSGNQKNYLTWYQQKPGQPPKLLIYGASTRESGVPDRFTGSGSGTDFTLTISSLQAEDVAVYYCQNDYSYPFTFGGGTKLEIKR
notes: Humanized IgG1 kappa
In the case of B6, the EC50 was 0.58 nM in assay [1] and 0.027 nM with ITGA2-His.

B7: Chimeric mouse antibody FS002-A103 (antibody, human IgG1, kappa, V domains shown)
VH: QVQLQQSGAELVRPGASVTLSCKASGYTFTDYEMHWVKQTPVHGLEWIGVIDPETGGTTYNQKFNDKATLTADKSSSTAYMDLRSLTSEDSAVYYCSRSGYYVSSYESYAMDYWGQGTSVTVSS
VL: DIVMTQSPKSMSMSVGERVTLSCKASENVGTYVSWYQQKPEQSPKLLIYGASTRESGVPDRFTGSGSGTDFTLTISSVQAEDLAVYYCQNDYSYPFTFGSGTKLEIKR
notes: Chimeric; expressed in ExpiCHO-S
On to B7, for which the values for the 50% effective concentration (EC50) (in assay [1]; in the assay with ITGA2-His) were 0.633 nM and 0.017 nM, respectively.

For the origin of these results see patent publication EP4722245A1, “ANTIBODY TARGETING ITGA2, ANTIBODY DRUG CONJUGATE THEREOF, AND USE” (Foreseen Technology (Beijing) Co., Ltd., priority 2023, dated 2024).
